Reference: US11110182B2, “Multifunctional RNA nanoparticles and methods for treating cancer and therapeutic resistant cancer” (University of Cincinnati, priority 2016, dated 2021)

System: BT474 cells
Assay: In vitro mammosphere culture assay, BT474 cells
Format: cell-based, human
Protocol: FIG. 4A) BT474 cells were treated with pRNA nanoparticles in combination with vehicle or 1 μM 4-hydroxy-tamoxifen (4-OHT) as indicated for 48 h, and assayed for cell viability by MTT assay. FIG. 4B) Cells were treated as above and the migration and FIG. 4C) invasion capabilities were examined. FIG. 4D) Cells were treated as above and assayed for in vitro mammosphere formation. FIG. 4E) The number of mammospheres was counted, and FIG. 4F) the mammosphere size was calculated. Scale bar: 10 μm.
Migration and metastasis assay. The 8-μm-pore-size polycarbonate membrane, which separates the two chambers of a 6.5-mm Transwell (Costar), was coated with or without 1:8 DMEM-diluted Matrigel (Corning). Transwell assay was performed as previously described.^57 Briefly, BT474 cells were treated with pRNAs alone or together with 4-hydroxy-tamoxifen (4-OHT) for 48 h and starved with serum-free DMEM containing 0.2% BSA overnight. On the next day, cells were collected and 2×10^5 cells were seeded to the upper chamber of Transwell. The lower chamber was filled with 600 μL DMEM medium containing 10% FBS. After incubation at 37° C. for 24 h, cells on the membranes were fixed and stained with 0.1% crystal violet in 20% ethanol solution. Cells at top side of membranes were removed completely, and cells at the bottom side were examined with an Olympus SZX12 microscope and counted. • Mammosphere culture and breast cancer stem cell analyses. BT474 cells were treated with pRNAs for 48 h. Then, cells were suspended in DMEM/F12 medium supplemented with 1×B27 (Thermo Fisher), 20 ng/mL bFGF and 20 ng/mL EGF (R&D), and added into 24-well ultralow attachment plates. After treatment with or without 1 μM 4-OHT for 7 days, mammosphere formation was recorded using an Axiovert S100 TV inverted microscope (Zeiss). Xenograft tumor tissues were cut into small pieces and digested with trypsin and collagenase at 37° C. for 1 h, and tumor cells were collected and rinsed with pre-cold PBS. All cells were stained with FITC-conjugated anti-CD44 antibody and PE-conjugated anti-CD24 antibody (BD Pharmingen) in the dark on ice for 30 min. After resuspension with 0.5 mL PBS buffer, CD44^+/CD24^−/low cell population was analyzed by flow cytometry. • Orthotopic xenograft breast tumor mouse model, in vivo imaging and anti-tumor therapy. […] The tumor volume was monitored every 3 days, and tumor size was calculated using the formula: volume=0.5×(width)^2×(length). […] After the tumor weights were recorded, part of the tumor tissues were digested with trypsin and collagenase, lysed for extraction of total proteins and RNAs, or fixed in 10% neutral buffered formalin along with organ tissues, respectively, for further western blot, real-time PCR and IHC studies, etc. […]

[1] = BT474, in combination with tamoxifen (1 μM 4-OHT, 7 days)

B1: pRNA-HER2apt-siMED1: 3-WJ pRNA nanoparticle bearing a HER2-targeting RNA aptamer and two different MED1 siRNAs; strands p1 SEQ ID NO: 3, p2 SEQ ID NO: 4 (nucleic acid)
chain 1: GGACAGUGAAAGUGAGUCAAAGGAUCAAUCAUGGCCAAAGAUGUUACUUUGAGAGCCUU
chain 2: GGCUCUCAAAGUAACAUCUAAGGCCAUGUGUAUGUGGGGGGAGGACGAUGCGGUCUGCUGUGCUUGAUAUGCCCCAGACGACUCGCCCCCCACAUACUUUGUUGAUCCAAUGACUCACUUUCACUGUCCUU
modifications: 2'-F modification; third strand may lack entry; pRNA-HER2apt-siMED1, p1; pRNA-HER2apt-siMED1, p2
greatly reduced: number of mammosphere formation [1] | size of mammospheres [1] | number of mammosphere formation (BT474, nanoparticles alone) | size of mammospheres (BT474, nanoparticles alone)
